Results as given in patent publication US20240376639A1 (ELASMOGEN, published 2024).

Columns and labels:
Human Serum Albumin = target: T1, Human Serum Albumin (human, UniProt P02768 25-609); assay: monoclonal phage ELISA, HSA as control antigen, OD450
T1 construct: Non-target control antigen in the ELISAs; also called HSA

human DLL4 = target: T2, human DLL4 (human, UniProt Q9NR61 27-524, limits assumed); assay: monoclonal phage ELISA on hDLL4, with HSA as control antigen, OD450
T2 construct: Antigen of the monoclonal phage ELISA; also called hDLL4
T2 sequence (Q9NR61 27-524 limits assumed): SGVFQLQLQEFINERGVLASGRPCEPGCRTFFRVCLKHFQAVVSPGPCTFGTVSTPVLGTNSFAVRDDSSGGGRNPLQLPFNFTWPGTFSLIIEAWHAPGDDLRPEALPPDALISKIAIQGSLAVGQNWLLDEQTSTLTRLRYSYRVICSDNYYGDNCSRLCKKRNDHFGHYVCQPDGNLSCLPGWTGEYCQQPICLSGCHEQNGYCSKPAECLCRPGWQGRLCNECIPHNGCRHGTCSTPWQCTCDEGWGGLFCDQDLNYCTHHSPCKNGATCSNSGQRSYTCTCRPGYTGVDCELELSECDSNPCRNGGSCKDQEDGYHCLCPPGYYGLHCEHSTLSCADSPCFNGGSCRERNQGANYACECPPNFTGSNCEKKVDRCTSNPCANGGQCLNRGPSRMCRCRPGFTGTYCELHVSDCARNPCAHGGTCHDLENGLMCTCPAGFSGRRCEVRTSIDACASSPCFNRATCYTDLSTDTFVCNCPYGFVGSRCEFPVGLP

hDLL4-Fc = hDLL4-Fc (human, UniProt Q9NR61 27-524, limits assumed); assay: direct binding ELISA on 1 µg/mL coated hDLL4-Fc, protein input unquantified, detection with anti-poly-histidine-HRP
Sequence of hDLL4-Fc (Q9NR61 27-524 limits assumed): as above

human ROR1 [1] = target: T3, human ROR1 (human, UniProt Q01973 30-403, limits assumed); assay: BIAcore (SPR)
T3 construct: The general ELISA protocol coats hROR1-Fc; also called hROR1; huROR1
T3 sequence (Q01973 30-403 limits assumed): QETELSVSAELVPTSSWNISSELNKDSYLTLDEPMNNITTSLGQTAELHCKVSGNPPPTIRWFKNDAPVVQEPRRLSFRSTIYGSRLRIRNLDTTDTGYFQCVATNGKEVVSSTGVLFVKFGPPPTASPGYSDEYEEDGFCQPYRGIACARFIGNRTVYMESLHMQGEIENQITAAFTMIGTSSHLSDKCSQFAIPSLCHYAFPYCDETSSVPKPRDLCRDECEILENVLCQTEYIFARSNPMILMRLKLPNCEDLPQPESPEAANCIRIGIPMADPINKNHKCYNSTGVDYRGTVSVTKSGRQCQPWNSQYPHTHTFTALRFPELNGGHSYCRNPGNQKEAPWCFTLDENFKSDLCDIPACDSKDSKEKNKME

human ROR1 [2] = target: T3, human ROR1; assay: BLI against hROR1
human ROR1 [3] = target: T3, human ROR1; assay: kinetics against hROR1; method not named in the table (kdis heading as in the BLI table)

binding result (Human Serum Albumin) | binding result (human DLL4) | Binder | further results
no binding | binds | E4 WT (VNAR, also called pre-humanised parental clone E4 WT; Wt DLL4 VNAR) VNAR: ASVNQTPRTATKETGESLTINCVLTDTKYLYSTSWFRKNPGTTDWERMSIGGRYVESVNKGAKSFSLRIKDLTVADSATYICRAWTSFEEQVKDVYGAGTVLTVN | binding result (hDLL4-Fc): binds
– | – | P3A1 V1 dimer HisMyc (other, In the real molecule the two VNAR copies form one polypeptide, joined by an unprinted short peptide linker and carrying a HisMyc tag. They are given here as two separate chains because the linker letters are unknown., 2x P3A1 V1 joined with a short peptide linker, with a HisMyc tag; expressed in bacteria; not shown: The short peptide linker joining the two P3A1 V1 copies and the HisMyc tag) VNAR 1: TRVDQSPSSLSASVGDRVTITCVLTDTSYGLYSTSWFRKNPGTTDWERMSIGGRYVESVNKGAKSFTLTISSLQPEDFATYYCKAREARHPWLRQWYDGAGTKVEIK VNAR 2: TRVDQSPSSLSASVGDRVTITCVLTDTSYGLYSTSWFRKNPGTTDWERMSIGGRYVESVNKGAKSFTLTISSLQPEDFATYYCKAREARHPWLRQWYDGAGTKVEIK | Kd (human ROR1 [1]): 0.179 nM
– | – | 78WT (VNAR, Parental non-humanised VNAR 78; also called native (WT) anti-DLL4 VNAR 78) VNAR: TRVDQTPRTATKETGESLTINCVLTDTNYSLYATSWFRKNPGTTDWERMSIGGRYVESVNKGAKSFSLRIKDLTVADSATYICRAVWFPYFISDMWDVYGAGTVLTVN | binding result (hDLL4-Fc): binds
– | – | 78-V3 (VNAR, Humanised VNAR (soloMER), poly-histidine tagged, expressed in E. coli; also called soloMER 78 variant V3) VNAR: TRVDQSPSSLSASVGDRVTITCVLTDTNYSLYATSWYQQKPGKTDWERMSIGGRYVESVNKGAKSFTLTISSLQPEDFATYYCRAVWFPYFISDMWDVYGGGTKVEIK | binding result (hDLL4-Fc): binds
– | – | 78-V4 (VNAR, Humanised VNAR (soloMER), poly-histidine tagged, expressed in E. coli; also called soloMER 78 variant V4) VNAR: TRVDQSPSSLSASVGDRVTITCVLTDTNYSLYATSWFRKNPGTTDWERMSIGGRFSGSGSKGAKSFTLTISSLQPEDFATYYCRAVWFPYFISDMWDVYGGGTKVEIK | binding result (hDLL4-Fc): binds
– | – | 78-V5 (VNAR, Humanised VNAR (soloMER), poly-histidine tagged, expressed in E. coli; also called soloMER 78 variant V5) VNAR: TRVDQSPSSLSASVGDRVTITCVLTDTNYSLYATSWYQQKPGKTDWERMSIGGRFSGSGSKGAKSFTLTISSLQPEDFATYYCRAVWFPYFISDMWDVYGGGTKVEIK | binding result (hDLL4-Fc): binds
no binding | binds | E4V2Ee8 (VNAR, Clone from the E4-V2 humanised library) VNAR: ASVNQSPSSLSASVGDRVTITCVLTGASYWYSTSWFRKNPGTTDEESMSNGGRYVESVNKRPMSFTLTISSLQPEDFATYYCRAWTSFEEQVKDVYGGGTKVEIK | –
– | binds | E4V2B9 (VNAR, Clone from the E4-V2 humanised library) VNAR: ASVNQSPSSLSASVGDRVTITCVLTGTGYWYSTSWFRKNPGTSNEDRIIIGGRYVESVNKGTKSFTLTISSLQPEDFATYYCRAWTSFEEQVKDVYGGGTKVEIK | –
no binding | binds | E4V2Gg11 (VNAR, Clone from the E4-V2 humanised library) VNAR: ASVNQSPSSLSASVGDRVTITCVLTGTRYWFSTSWFRKNPGTTDEDSISNGGRYVESVNNGSMSFTLTISSLQPEDFATYYCRAWTSFEEQVKDVYGGGTKVEIK | –
no binding | binds | E4V2Ee6 (VNAR, Clone from the E4-V2 humanised library) VNAR: ASVNQSPSSLSASVGDRVTITCVLTDTRYLYATSWFRKNPGTTNKESISNGGRYVESVNKRSMSFTLTISSLQPEDFATYYCRAWTSFEEQVKDVYGGGTKVEIK | –
no binding | binds | E4V2Cc8 (VNAR, Clone from the E4-V2 humanised library) VNAR: ASVNQSPSSLSASVGDRVTITCVLTSAGYLYATSWFRKNPGTSDKESMIIGRRYVESVNNRSMSFTLTISSLQPEDFATYYCRAWTSFEEQVKDVYGGGTKVEIK | –
no binding | binds | E4V2Cc9 (VNAR, Clone from the E4-V2 humanised library) VNAR: ASVNQSPSSLSASVGDRVTITCVLTGTEYLYSTSWFRKNPGTPNEDRMINGGRYVESVNKGTMSFTLTISSLQPEDFATYYCRAWTSFEEQVKDVYGGGTKVEIK | –
no binding | binds | E4V2D10 (VNAR, Clone from the E4-V2 humanised library) VNAR: ASVNQSPSSLSASVGDRVTITCVLTGAGYWFATSWFRKNPGTSDKESISNSGRYVESVNKRSMSFTLTISSLQPEDFATYYCRAWTSFEEQVKDVYGGGTKVEIK | –
– | – | P3A1 WT dimer HisMyc (other, In the real molecule the two VNAR copies form one polypeptide, joined by an unprinted short peptide linker and carrying a HisMyc tag. They are given here as two separate chains because the linker letters are unknown., VNAR dimer in one chain; also called parental WT clone P3A1; WT non-humanised P3A1 clone; not shown: The short peptide linker joining the two P3A1 copies and the HisMyc tag) VNAR 1: TRVDQTPRTATKETGESLTINCVLTDTSYGLYSTSWFRKNPGTTDWERMSIGGRYVESVNKGAKSFSLRIKDLTVADSATYYCKAREARHPWLRQWYDGAGTVLTVN VNAR 2: TRVDQTPRTATKETGESLTINCVLTDTSYGLYSTSWFRKNPGTTDWERMSIGGRYVESVNKGAKSFSLRIKDLTVADSATYYCKAREARHPWLRQWYDGAGTVLTVN | Kd (human ROR1 [1]): 0.302 nM
– | – | D3 V2 (VNAR, Humanised VNAR (soloMER)) VNAR: ASVNQSPSSLSASVGDRVTITCVLTDTSYGLYSTSWFRKNPGTTDWERMSIGGRYVESVNKRAKSFTLTISSLQPEDFATYYCKAQSGMAISTGSGHGYNWYDGAGTKVEIK | Kd (human ROR1 [2]): 18.9 nM; kon (human ROR1 [2]): 1.85e+06 M⁻¹ s⁻¹; Kd (human ROR1 [3]): 15.6 nM; koff (human ROR1 [3]): 0.0238 s⁻¹; kon (human ROR1 [3]): 1.52e+06 M⁻¹ s⁻¹
– | – | D3 V4 (VNAR, Humanised VNAR (soloMER)) VNAR: ASVNQSPSSLSASVGDRVTITCVLTDTSYGLYSTSWYQQKPGTTDWERMSIGGRYVESVNKRAKSFTLTISSLQPEDFATYYCKAQSGMAISTGSGHGYNWYDGAGTKVEIK | Kd (human ROR1 [2]): 58.5 nM; kon (human ROR1 [2]): 1.38e+06 M⁻¹ s⁻¹
– | – | D3 V5 (VNAR, Humanised VNAR (soloMER)) VNAR: ASVNQSPSSLSASVGDRVTITCVLTDTSYGLYSTSWYQQKPGTTDWERMSIGGRFSGSGSKRAKSFTLTISSLQPEDFATYYCKAQSGMAISTGSGHGYNWYDGAGTKVEIK | Kd (human ROR1 [2]): 36.2 nM
no binding | binds | E4V2F3 (VNAR, Clone from the E4-V2 humanised library) VNAR: ASVNQSPSSLSASVGDRVTITCVLTDTNYWYSTSWFRKNPGTTNEDRIIISGRYVESVNNGPKSFTLTISSLQPEDFATYYCRAWTSFEEQVKDVYGGGTKVEIK | –
